The chains are these.
B1: Fab-2901 (Fab, V domains shown)
VH: EVQLVESGGGLVQPGGSLRLSCAASGFNISYSYMHWVRQAPGKGLEWVASIYSYSSYTYYADSVKGRFTISADTSKNTAYLQMNSLRAEDTAVYYCARSWYYWSPSSGMDYWGQGTLVTVSS
VL: DIQMTQSPSSLSASVGDRVTITCRASQSVSSAVAWYQQKPGKAPKLLIYSASSLYSGVPSRFSGSRSGTDFTLTISSLQPEDFATYYCQQGGFLITFGQGTKVEIK
notes: Fab; also called Fv-2901
B2: Fab-2898 (Fab, V domains shown)
VH: EVQLVESGGGLVQPGGSLRLSCAASGFNIYSYSMHWVRQAPGKGLEWVASIYSSSGSTSYADSVKGRFTISADTSKNTAYLQMNSLRAEDTAVYYCARAVWGLDYWGQGTLVTVSS
VL: DIQMTQSPSSLSASVGDRVTITCRASQSVSSAVAWYQQKPGKAPKLLIYSASSLYSGVPSRFSGSRSGTDFTLTISSLQPEDFATYYCQQWWGYYSLITFGQGTKVEIK
notes: Fab; also called Fv-2898
B3: Fab-2914 (Fab, V domains shown)
VH: EVQLVESGGGLVQPGGSLRLSCAASGFNIYYSYMHWVRQAPGKGLEWVASIYPSSSSTSYADSVKGRFTISADTSKNTAYLQMNSLRAEDTAVYYCARGAMDYWGQGTLVTVSS
VL: DIQMTQSPSSLSASVGDRVTITCRASQSVSSAVAWYQQKPGKAPKLLIYSASSLYSGVPSRFSGSRSGTDFTLTISSLQPEDFATYYCQQWYYGSLITFGQGTKVEIK
notes: Fab; also called Fv-2914
B4: Fab-2913 (Fab, V domains shown)
VH: EVQLVESGGGLVQPGGSLRLSCAASGFNISYSSIHWVRQAPGKGLEWVASIYPYSSSTSYADSVKGRFTISADTSKNTAYLQMNSLRAEDTAVYYCARYGYYGLDYWGQGTLVTVSS
VL: B2 VL with W92G, G93V, Y94S, Y95H, S96Y, I98F
notes: Fab; also called Fv-2913
B5: Fab-2915 (Fab, V domains shown)
VH: EVQLVESGGGLVQPGGSLRLSCAASGFNIYYYSMHWVRQAPGKGLEWVASIYSSYGYTSYADSVKGRFTISADTSKNTAYLQMNSLRAEDTAVYYCARGYHYYPYYSGLDYWGQGTLVTVSS
VL: B3 VL with W91A, G94H
notes: Fab; also called Fv-2915

Where a chain is given by its changes, count along the chain named.

The first experiment concerns the target T1, FZD8 cysteine-rich domain (CRD), MYC-tagged and GPI-anchored on CHO cells (human, UniProt Q498S8 31-155 (rat entry), GPI anchor).
T1 construct: also called FZD8 CRD; CHO-myc-FZDGPI; not shown: MYC tag and GPI anchor signal
T1 sequence: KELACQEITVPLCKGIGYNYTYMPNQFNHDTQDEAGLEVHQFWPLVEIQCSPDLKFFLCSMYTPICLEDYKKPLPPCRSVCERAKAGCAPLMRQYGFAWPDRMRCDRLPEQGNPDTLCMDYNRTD
Nature of the experiment: flow cytometry, CHO-CRD cells. (In general: A flow cytometer gives signals particle by particle.)
In the case of B1, the median fluorescence turned out to be 10.9.
The molecule B2 displayed a median fluorescence of 12.7.
In turn, B3 returned a median fluorescence of 8.9.

A further experiment has as its target T2, FZD9 cysteine-rich domain (CRD), MYC-tagged and GPI-anchored on CHO cells (human, UniProt O00144 35-161, GPI anchor).
T2 construct: also called FZD9 CRD; CHO-myc-FZDGPI; not shown: MYC tag and GPI anchor signal
T2 sequence: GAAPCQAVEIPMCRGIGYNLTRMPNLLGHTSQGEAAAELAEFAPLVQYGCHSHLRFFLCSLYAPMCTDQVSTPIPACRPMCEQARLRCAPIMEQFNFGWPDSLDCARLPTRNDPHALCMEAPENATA
Description: flow cytometry, CHO-CRD cells.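 Further: flow cytometry of Fab binding to CHO cells overexpressing a Frizzled CRD, with binding defined as median fluorescence over twice that of CHO cells lacking any Frizzled CRD.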
B1 yielded a median fluorescence of 3.25.
B2: the median fluorescence was found to be 4.57.
For B4, the median fluorescence stood at 3.79.
On the same count and under the same terms, with B3 the figure was 3.82; with B5, 3.92.

The next experiment concerns the target T3, FZD6 cysteine-rich domain (CRD), MYC-tagged and GPI-anchored on CHO cells (human, UniProt O60353 20-146, GPI anchor).
T3 construct: also called FZD6 CRD; CHO-myc-FZDGPI; not shown: MYC tag and GPI anchor signal
T3 sequence: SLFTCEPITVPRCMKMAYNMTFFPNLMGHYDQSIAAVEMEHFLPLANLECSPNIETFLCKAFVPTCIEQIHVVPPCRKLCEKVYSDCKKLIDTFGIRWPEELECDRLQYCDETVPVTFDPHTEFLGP
Nature of the experiment: flow cytometry, CHO-CRD cells.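 Further: flow cytometry of Fab binding to CHO cells overexpressing a Frizzled CRD, with binding defined as median fluorescence over twice that of CHO cells lacking any Frizzled CRD.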
For the molecule B1, the median fluorescence came out at 3.62.
Still for that read-out and setting: with B2 the figure was 4.49; with B4, 3.82; with B3, 3.59.
B5 came in with a median fluorescence of 3.37.

The next experiment deals with FZD2 cysteine-rich domain (CRD), MYC-tagged and GPI-anchored on CHO cells (human, UniProt Q14332 35-161). Description: flow cytometry, CHO-CRD cells.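 Further: flow cytometry of Fab binding to CHO cells overexpressing a Frizzled CRD, with binding defined as median fluorescence over twice that of CHO cells lacking any Frizzled CRD.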
Description: (§1) Binding was measured via flow cytometry analysis of CHO cells overexpressing CRD of FZD1, FZD2, FZD3, FZD4, FZD5, FZD6, FZD7, FZD8, FZD9 or FZD10. Median fluorescence values are shown.
Take B2: the median fluorescence was determined as 13.5.
Turning to B4, the median fluorescence was found to be 14.1.
Turning to B3, the median fluorescence turned out to be 18.9.
Same read-out and setting: under B5 stands 22.1.

The next experiment has as its target T4, FZD10 cysteine-rich domain (CRD), MYC-tagged and GPI-anchored on CHO cells (human, UniProt Q9ULW2 30-156, GPI anchor).
T4 construct: also called FZD10 CRD; CHO-myc-FZDGPI; not shown: MYC tag and GPI anchor signal
T4 sequence: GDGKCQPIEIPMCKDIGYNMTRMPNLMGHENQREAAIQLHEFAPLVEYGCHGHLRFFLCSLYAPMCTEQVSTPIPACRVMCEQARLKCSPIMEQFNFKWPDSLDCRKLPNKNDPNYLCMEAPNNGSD
Description: flow cytometry, CHO-CRD cells.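 Further: flow cytometry of Fab binding to CHO cells overexpressing a Frizzled CRD, with binding defined as median fluorescence over twice that of CHO cells lacking any Frizzled CRD.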
B1 gave a median fluorescence of 3.85.
As to B2, the median fluorescence worked out at 4.26.
Take B4: the median fluorescence came to 3.75.
In the case of B3, the median fluorescence was found to be 3.72.
In turn, B5 yielded a median fluorescence of 3.92.

A further experiment addresses T5, FZD3 cysteine-rich domain (CRD), MYC-tagged and GPI-anchored on CHO cells (human, UniProt Q9NPG1 24-150, GPI anchor).
T5 construct: domain: cysteine-rich domain (CRD); also called FZD3 CRD; CHO-myc-FZDGPI; not shown: MYC tag and GPI anchor signal
T5 sequence (looked up): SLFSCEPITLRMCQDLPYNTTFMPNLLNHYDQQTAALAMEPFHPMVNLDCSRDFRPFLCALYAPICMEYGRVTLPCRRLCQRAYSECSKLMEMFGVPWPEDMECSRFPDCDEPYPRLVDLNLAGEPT
Description: flow cytometry, CHO-CRD cells.
With B1, the median fluorescence was found to be 4.1.
B2 registered a median fluorescence of 5.05.
As for B4, the median fluorescence was determined as 4.61.
Molecule B3 displayed a median fluorescence of 4.61.
Same read-out and setting: under B5 stands 5.05.

The target of the next experiment is T6, FZD4 cysteine-rich domain (CRD), MYC-tagged and GPI-anchored on CHO cells (human, UniProt Q9ULV1 42-167, GPI anchor).
T6 construct: also called FZD4 CRD; CHO-myc-FZDGPI; not shown: MYC tag and GPI anchor signal
T6 sequence: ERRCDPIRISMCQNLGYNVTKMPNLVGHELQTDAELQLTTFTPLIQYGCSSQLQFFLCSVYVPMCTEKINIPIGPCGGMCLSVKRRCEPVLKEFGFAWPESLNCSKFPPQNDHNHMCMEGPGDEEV
Nature of the experiment: flow cytometry, CHO-CRD cells.
As to B1, the median fluorescence came to 5.09.
In the case of B2, the median fluorescence is 6.26.
Still for that read-out and setting: under B4 stands 5.57.
Still for that read-out and setting: with B3 the figure was 5.52; with B5, 5.99.

In another experiment the target is FZD7 cysteine-rich domain (CRD), MYC-tagged and GPI-anchored on CHO cells (human, UniProt O75084 45-169). Nature of the experiment: flow cytometry, CHO-CRD cells.
Description: as §1
Molecule B1 displayed a median fluorescence of 47.
Regarding B2, the median fluorescence amounted to 36.9.
Molecule B4 showed a median fluorescence of 34.9.
The molecule B3 gave a median fluorescence of 18.4.
Molecule B5 had a median fluorescence of 40.7.

The target of the next experiment is FZD1 cysteine-rich domain (CRD), MYC-tagged and GPI-anchored on CHO cells (human). Nature of the experiment: flow cytometry, CHO-CRD cells.
Description: as §1
B1 showed a median fluorescence of 17.1.
On the same count and under the same terms, under B2 stands 14.9; under B4, 17.5; under B3, 40.3.
The molecule B5 returned a median fluorescence of 36.9.

In the next experiment the target is T7, FZD5 cysteine-rich domain (CRD), MYC-tagged and GPI-anchored on CHO cells (human, UniProt Q13467 29-156, GPI anchor).
T7 construct: also called FZD5 CRD; CHO-myc-FZDGPI; not shown: MYC tag and GPI anchor signal
T7 sequence: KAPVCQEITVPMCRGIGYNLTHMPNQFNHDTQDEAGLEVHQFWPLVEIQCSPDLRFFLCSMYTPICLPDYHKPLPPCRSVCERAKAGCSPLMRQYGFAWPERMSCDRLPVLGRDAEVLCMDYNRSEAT
Description: flow cytometry, CHO-CRD cells.
On to B1, for which the median fluorescence amounted to 32.8.
In the case of B2, the median fluorescence was determined as 32.
Same read-out and setting: with B4 the figure was 27.1; with B3, 31.9.

The target of a further experiment is T2, FZD9 cysteine-rich domain (CRD), …. Description: immunofluorescence, CHO-CRD cells.
For B1, the binding result was “no binding”.
As to B2, the binding result is given as “no binding”.
For B4, the binding result is on record as “no binding”.
On to B3, for which the binding result was “no binding”.
Same read-out and setting: under B5 stands “no binding”.

A further experiment concerns the target T3, FZD6 cysteine-rich domain (CRD), …. Nature of the experiment: immunofluorescence, CHO-CRD cells.
On to B1, for which the binding result was “no binding”.
For the molecule B2, the binding result is recorded as “no binding”.
With B4, the binding result is “no binding”.
For the molecule B3, the binding result was “no binding”.
On the same count and under the same terms, under B5 stands “no binding”.

The target in the next experiment is T4, FZD10 cysteine-rich domain (CRD), …. Nature of the experiment: immunofluorescence, CHO-CRD cells.
Consider B1, for which the binding result was “no binding”.
Turning to B2, the binding result was “no binding”.
As to B4, the binding result is reported as “no binding”.
For the molecule B3, the binding result was “no binding”.
Same read-out and setting: under B5 stands “no binding”.

The next experiment addresses T5, FZD3 cysteine-rich domain (CRD), …. Description: immunofluorescence, CHO-CRD cells.
As to B1, the binding result is reported as “no binding”.
Regarding B2, the binding result is reported as “no binding”.
Still for that read-out and setting: with B4 the entry was “no binding”.
With B3, the binding result is recorded as “no binding”.
The same measure, in the same setting: under B5 stands “no binding”.

For another experiment, the target named is T6, FZD4 cysteine-rich domain (CRD), …. Description: immunofluorescence, CHO-CRD cells.
For B1, the binding result is listed as “no binding”.
In the case of B2, the binding result is “no binding”.
Same read-out and setting: with B4 the entry was “no binding”; with B3, “no binding”.
Still for that read-out and setting: under B5 stands “no binding”.

The values are drawn from patent US20210253718A1 (MODMAB THERAPEUTICS, published 2021).
